Experimental data from publication PMC3667722.

Assays:
[1] = biological target: GST-p120-catenin isoform 4A (mouse); assay: pull-down
[2] = biological target: GST-p120-catenin isoform 4A Δ560–628 (mouse); assay: pull-down

Chain of GST-p120-catenin isoform 4A (mouse) (P30999 whole entry, canonical isoform): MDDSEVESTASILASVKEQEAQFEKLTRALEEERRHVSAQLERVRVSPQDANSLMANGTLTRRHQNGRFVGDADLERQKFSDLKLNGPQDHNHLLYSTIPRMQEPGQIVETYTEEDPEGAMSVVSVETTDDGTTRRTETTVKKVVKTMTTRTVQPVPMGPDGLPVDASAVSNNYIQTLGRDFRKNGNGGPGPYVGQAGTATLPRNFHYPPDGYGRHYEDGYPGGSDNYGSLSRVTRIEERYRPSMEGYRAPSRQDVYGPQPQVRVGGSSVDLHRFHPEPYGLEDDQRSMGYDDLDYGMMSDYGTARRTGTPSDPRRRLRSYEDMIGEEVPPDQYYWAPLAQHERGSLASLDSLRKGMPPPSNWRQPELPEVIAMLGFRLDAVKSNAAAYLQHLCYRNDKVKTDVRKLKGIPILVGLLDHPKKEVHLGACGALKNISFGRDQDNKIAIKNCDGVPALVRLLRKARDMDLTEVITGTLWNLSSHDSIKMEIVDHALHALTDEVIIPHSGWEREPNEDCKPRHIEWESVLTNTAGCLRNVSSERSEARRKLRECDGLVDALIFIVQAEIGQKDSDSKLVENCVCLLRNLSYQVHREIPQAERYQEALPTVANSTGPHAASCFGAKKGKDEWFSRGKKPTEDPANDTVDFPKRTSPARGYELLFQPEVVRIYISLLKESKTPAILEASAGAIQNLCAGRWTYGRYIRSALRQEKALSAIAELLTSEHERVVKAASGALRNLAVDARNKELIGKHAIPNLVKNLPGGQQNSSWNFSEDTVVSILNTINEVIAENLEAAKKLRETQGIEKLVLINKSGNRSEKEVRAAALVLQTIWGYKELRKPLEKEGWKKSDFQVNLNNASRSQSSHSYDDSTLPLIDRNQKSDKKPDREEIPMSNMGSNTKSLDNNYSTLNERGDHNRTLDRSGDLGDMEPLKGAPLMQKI

- p190B bound, percent of that bound to isoform 3A [1]: 43%
- p190B bound, percent of that bound to isoform 3A [2]: 38%
Substance: p190RhoGAP-B (from UniProt Q13017 1-1502) (natural protein)
